From US20260209789A1 (WESTLAKE UNIVERSITY, published 2026) come the findings set out here.

In one test the target is endogenous eIF4G (human (endogenous in HEK-293 cells), UniProt Q04637 1-1599). The test can be described thus: anti-Flag co-IP from HEK-293 lysate, Western blot with anti-eIF4G (FIG. 6A). (In western blotting, separated proteins are transferred to a membrane and probed.)
The next test concerns the target endogenous eIF4E (human (endogenous in HEK-293 cells), UniProt P06730 2-217). The test is described as follows: anti-Flag co-IP from HEK-293 lysate, Western blot with anti-eIF4E (FIG. 6A).
In another test the target is T1, BCR-ABL.
T1 construct: Overexpressed in HEK-293 cells; also called BCR-ABL oncoprotein; BCR-ABL fusion protein

Chain of endogenous eIF4G (Q04637 whole entry): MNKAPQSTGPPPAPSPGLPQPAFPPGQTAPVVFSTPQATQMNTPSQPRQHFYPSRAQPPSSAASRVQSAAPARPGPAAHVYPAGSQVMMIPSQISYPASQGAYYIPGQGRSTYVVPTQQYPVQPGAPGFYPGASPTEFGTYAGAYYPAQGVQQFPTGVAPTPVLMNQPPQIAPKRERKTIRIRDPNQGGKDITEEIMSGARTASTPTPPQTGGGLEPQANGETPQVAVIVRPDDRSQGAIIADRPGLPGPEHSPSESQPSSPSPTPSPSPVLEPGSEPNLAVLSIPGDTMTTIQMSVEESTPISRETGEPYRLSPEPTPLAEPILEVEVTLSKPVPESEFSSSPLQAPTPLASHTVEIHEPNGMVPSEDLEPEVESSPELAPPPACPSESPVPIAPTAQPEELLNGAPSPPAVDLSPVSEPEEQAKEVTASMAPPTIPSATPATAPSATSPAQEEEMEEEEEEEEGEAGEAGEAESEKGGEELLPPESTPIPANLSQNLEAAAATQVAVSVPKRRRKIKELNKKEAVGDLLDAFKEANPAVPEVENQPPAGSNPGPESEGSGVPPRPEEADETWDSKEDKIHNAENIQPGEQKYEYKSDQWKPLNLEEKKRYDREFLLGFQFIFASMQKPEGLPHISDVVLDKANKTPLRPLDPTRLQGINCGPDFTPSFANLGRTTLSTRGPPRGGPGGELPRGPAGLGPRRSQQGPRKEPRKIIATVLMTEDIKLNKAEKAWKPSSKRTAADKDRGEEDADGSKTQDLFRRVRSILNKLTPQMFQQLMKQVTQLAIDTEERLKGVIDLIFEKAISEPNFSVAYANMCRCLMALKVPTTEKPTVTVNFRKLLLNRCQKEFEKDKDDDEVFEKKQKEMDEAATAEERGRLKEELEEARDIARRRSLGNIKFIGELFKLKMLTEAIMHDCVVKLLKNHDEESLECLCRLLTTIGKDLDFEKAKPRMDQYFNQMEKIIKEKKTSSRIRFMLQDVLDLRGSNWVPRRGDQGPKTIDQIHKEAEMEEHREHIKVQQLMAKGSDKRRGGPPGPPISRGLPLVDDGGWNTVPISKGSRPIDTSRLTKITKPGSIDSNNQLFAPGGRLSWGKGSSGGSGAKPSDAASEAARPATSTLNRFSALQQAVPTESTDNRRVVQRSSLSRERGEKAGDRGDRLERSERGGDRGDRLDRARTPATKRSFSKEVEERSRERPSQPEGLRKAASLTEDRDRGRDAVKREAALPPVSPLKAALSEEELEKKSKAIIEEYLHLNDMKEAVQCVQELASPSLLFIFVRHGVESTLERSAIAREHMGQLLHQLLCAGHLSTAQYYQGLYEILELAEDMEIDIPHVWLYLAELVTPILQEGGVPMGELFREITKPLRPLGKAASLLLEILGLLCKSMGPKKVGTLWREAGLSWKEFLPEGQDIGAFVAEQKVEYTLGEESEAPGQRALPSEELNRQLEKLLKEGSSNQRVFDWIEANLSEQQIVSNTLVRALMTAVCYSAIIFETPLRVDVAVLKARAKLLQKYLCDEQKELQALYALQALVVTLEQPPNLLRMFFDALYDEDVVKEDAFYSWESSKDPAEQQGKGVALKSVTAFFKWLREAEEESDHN
Chain of endogenous eIF4E (P06730 2-217 limits assumed): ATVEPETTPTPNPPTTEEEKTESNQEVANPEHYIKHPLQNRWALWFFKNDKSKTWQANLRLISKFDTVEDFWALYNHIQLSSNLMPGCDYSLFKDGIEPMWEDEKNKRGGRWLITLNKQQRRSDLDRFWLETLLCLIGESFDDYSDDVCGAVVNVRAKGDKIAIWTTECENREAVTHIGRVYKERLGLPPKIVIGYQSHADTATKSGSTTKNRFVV

B1: 3xFLAG-MCP (other)
chain: MDYKDHDGDYKDHDIDYKDDDDKASNFTQFVLVDNGGTGDVTVAPSNFANGVAEWISSNSRSQAYKVTCSVRQSSAQKRKYTIKVEVPKVATQTVGGVELPVAAWRSYLNMELTIPIFATNSDCELIVKAMQGLLKDGNPIPSAIAANSGIY
notes: also called 3×FLAG-tagged MCP; pSL1084
B1: the binding result in the test with endogenous eIF4G and in the test with endogenous eIF4E was “no binding” in each case.

B2: 3xFLAG-MCP-NSP3 (other)
chain: MDYKDHDGDYKDHDIDYKDDDDKASNFTQFVLVDNGGTGDVTVAPSNFANGVAEWISSNSRSQAYKVTCSVRQSSAQKRKYTIKVEVPKVATQTVGGVELPVAAWRSYLNMELTIPIFATNSDCELIVKAMQGLLKDGNPIPSAIAANSGIYASGSGGGGDVMLKMESTQQMASSIINTSFEAAVVAATSTLELMGIQYDYNEVYTRVKSKFDYVMDDSGVKNNLLGKAATIDQALNGKFGSAARNRNWMADTRTTARLDEDVNKLRMMLSSKGIDQKMRVLNACFNVKRVPGKSSSIIKCTRLMRDKIERGEVEVDDSFVEEKMEVDTIDWKSRYEQLEKRFESLKQRVNEKYTSWVQKAKKVNENMYSLQNVISQQQSQIADLQNYCNKLEVDLQNKISSLVSSVEWYLKSMELPDEIKTDIEQQLNSIDVINPINAIDDFESLIRNIILDYDRIFLMFKGLMRQCNYEYTYE
notes: also called 3×FLAG-tagged MCP-NSP3; pSL1083
As for B2, the binding result in the test with endogenous eIF4G was “binds”.

B3: 3xHA-CCmut3-NSP3 (designed binder)
chain: MVDPVGFAEAWKAQFPDSEPPRMELRSVGDIEQELERAEARIRRNEQRVNQERFRMIYLETLLAKEKKSYDRASGSGGGGDVASMLKMESTQQMASSIINTSFEAAVVAATSTLELMGIQYDYNEVYTRVKSKFDYVMDDSGVKNNLLGKAATIDQALNGKFGSAARNRNWMADTRTTARLDEDVNKLRMMLSSKGIDQKMRVLNACFNVKRVPGKSSSIIKCTRLMRDKIERGEVEVDDSFVEEKMEVDTIDWKSRYEQLEKRFESLKQRVNEKYTSWVQKAKKVNENMYSLQNVISQQQSQIADLQNYCNKLEVDLQNKISSLVSSVEWYLKSMELPDEIKTDIEQQLNSIDVINPINAIDDFESLIRNIILDYDRIFLMFKGLMRQCNYEYTYEYPYDVPDYAYPYDVPDYAYPYDVPDYA
notes: also called 3×HA-tagged CCmut3-NSP3; pSL1102
Consider B3, for which the binding result with BCR-ABL is reported as “binds”.

B4: 3xFLAG-MCP-ABI(iDab) (VHH)
chain: MDYKDHDGDYKDHDIDYKDDDDKASNFTQFVLVDNGGTGDVTVAPSNFANGVAEWISSNSRSQAYKVTCSVRQSSAQKRKYTIKVEVPKVATQTVGGVELPVAAWRSYLNMELTIPIFATNSDCELIVKAMQGLLKDGNPIPSAIAANSGIYASGSGGGGDVGSEVQLLESGGGLVQPGGSLRLSCAASGFTFSTFSMNWVRQAPGKGLEWVSYISKCGHVIYYADSVKGRFTISRDNSKNTLYLQMNSLRAEDTAVYYCARGPLWSFVRMSFDYWGQGTLVTVSSAS
notes: also called 3×FLAG-tagged MCP-ABI (iDab)3; 3xFLAG-MCP-(ABI(iDab))3
On to B4, for which the binding result with BCR-ABL was “binds”.
